Measurements taken from article PMC7363144, “Cryo-electron microscopy structure and potential enzymatic function of human six-transmembrane epithelial antigen of the prostate 1 (STEAP1)” (The Journal of Biological Chemistry, 2020).

B1: Fab120.545 mutant R32LE (Fab, V domains shown)
VH: DVQVQESGPGLVKPSQSLSLTCTVTGYSITSDYAWNWIRQFPGNKLEWMGYISNSGSTSYNPSLKSRISITRDTSKNQFFLQLISVTTEDTATYYCARERNYDYDDYYYAMDYWGQGTTLTVSA
VL: DIVMSQSPSSLAVSVGEKVTMSCKSSQSLLYESNQKNYLAWYQQKPGQSPKLLIYWASTRESGVPDRFTGSGSGTDFTLTISSVKAEDLAVYYCQQYYNYPRTFGGGTKLEIK
notes: as the heavy chain of m2; variable region in PDB 6Y9B; as the light chain of m2 with R32E; variable region of the parent in PDB 6Y9B; source: gift from Genmab BV, produced at the authors' request
B2: Fab120.545 mutant N99LD (Fab, V domains shown)
VH: DVQVQESGPGLVKPSQSLSLTCTVTGYSITSDYAWNWIRQFPGNKLEWMGYISNSGSTSYNPSLKSRISITRDTSKNQFFLQLISVTTEDTATYYCARERNYDYDDYYYAMDYWGQGTTLTVSA
VL: DIVMSQSPSSLAVSVGEKVTMSCKSSQSLLYRSNQKNYLAWYQQKPGQSPKLLIYWASTRESGVPDRFTGSGSGTDFTLTISSVKAEDLAVYYCQQYYDYPRTFGGGTKLEIK
notes: as the heavy chain of m2; variable region in PDB 6Y9B; as the light chain of m2 with N99D; variable region of the parent in PDB 6Y9B; source: gift from Genmab BV, produced at the authors' request
B3: Fab120.545 mutant D103HA,D105HA,D106HA (Fab, V domains shown)
VH: DVQVQESGPGLVKPSQSLSLTCTVTGYSITSDYAWNWIRQFPGNKLEWMGYISNSGSTSYNPSLKSRISITRDTSKNQFFLQLISVTTEDTATYYCARERNYAYAAYYYAMDYWGQGTTLTVSA
VL: DIVMSQSPSSLAVSVGEKVTMSCKSSQSLLYRSNQKNYLAWYQQKPGQSPKLLIYWASTRESGVPDRFTGSGSGTDFTLTISSVKAEDLAVYYCQQYYNYPRTFGGGTKLEIK
notes: as the heavy chain of m2 with D103A, D105A, D106A; variable region of the parent in PDB 6Y9B; as the light chain of m2; variable region in PDB 6Y9B; also called Fab-AAA; source: gift from Genmab BV, produced at the authors' request
B4: Fab120.545 mutant D103HN,D105HN,D106HN (Fab, V domains shown)
VH: DVQVQESGPGLVKPSQSLSLTCTVTGYSITSDYAWNWIRQFPGNKLEWMGYISNSGSTSYNPSLKSRISITRDTSKNQFFLQLISVTTEDTATYYCARERNYNYNNYYYAMDYWGQGTTLTVSA
VL: DIVMSQSPSSLAVSVGEKVTMSCKSSQSLLYRSNQKNYLAWYQQKPGQSPKLLIYWASTRESGVPDRFTGSGSGTDFTLTISSVKAEDLAVYYCQQYYNYPRTFGGGTKLEIK
notes: as the heavy chain of m2 with D103N, D105N, D106N; variable region of the parent in PDB 6Y9B; as the light chain of m2; variable region in PDB 6Y9B; also called Fab-NNN; source: gift from Genmab BV, produced at the authors' request

Biological target: T1, six-transmembrane epithelial antigen of the prostate 1 (STEAP1), full-length human, C-terminal Strep-tag (Homo sapiens)
T1 construct: human STEAP1, UniProtKB Q9UHE8, full length; codon-optimized DNA from GeneArt; Homotrimer in the cryo-EM structure; in digitonin micelles; The PDB model holds residues 67-312 only; source: HEK293 GnTI- suspension cells, purified in digitonin (Strep-Tactin resin, SEC)
Assay: SEC; 25 µl STEAP1 (0.28 mg/ml) mixed with a ~2-fold molar excess of Fab variant (35 µl at 0.5 mg/ml), several hours, Superdex 200 increase 3.2/300, 20 mM Tris pH 7.8, 200 mM NaCl, 0.08% digitonin; heme absorbance at 412 nm and tryptophan fluorescence
Conditions: both partners purified

T1 sequence (Q9UHE8 2-339): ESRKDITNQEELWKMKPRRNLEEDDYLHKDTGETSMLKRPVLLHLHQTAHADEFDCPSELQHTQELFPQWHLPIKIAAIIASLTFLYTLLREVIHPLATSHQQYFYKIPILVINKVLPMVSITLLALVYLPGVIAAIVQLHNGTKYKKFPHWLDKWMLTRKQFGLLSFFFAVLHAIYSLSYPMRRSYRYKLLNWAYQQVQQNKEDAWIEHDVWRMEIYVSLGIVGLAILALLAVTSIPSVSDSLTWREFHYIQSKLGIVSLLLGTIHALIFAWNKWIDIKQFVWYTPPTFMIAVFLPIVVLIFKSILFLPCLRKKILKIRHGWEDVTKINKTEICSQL

Binding result, no binding:
B1
B2
B3
B4
